# B1: HSV-1 glycoprotein B H516P, full-length, membrane-anchored, on extracellular vesicles (natural protein)
# chain: not shown
# notes: glycoprotein B (gB) of herpes simplex virus 1, full length with membrane anchor and cytoplasmic domain, gene in plasmid pEP98; Trimer embedded in the vesicle membrane; prefusion (compact) conformation; also called gB H516P; H516P gB variant; source: BHK-21 cells, transiently transfected; on extracellular vesicles harvested from the supernatant by differential centrifugation
# Target: the molecule itself
# Assay: cryo-EM structure; electron cryo tomography and sub-volume averaging of gB H516P on purified extracellular vesicles; vesicles in 20 mM Hepes (pH 8), 150 mM NaCl; 46,067 sub-volumes, C3 symmetrised; ectodomain 9.0 Å; domains of the postfusion crystal structure fitted as rigid bodies and by MD-based flexible fitting
protein,measurement,value
B1,stoichiometry N,3

# — publication PMC7518877, “The prefusion structure of herpes simplex virus glycoprotein B” (Science Advances, 2020)
